Tests used:
[1] = target: T1, membranous catalase of human tumor cells (MKN-45 gastric carcinoma, SHEP neuroblastoma) (human, UniProt P04040 2-527); experiment: cell-based or functional assay
T1 sequence (looked up): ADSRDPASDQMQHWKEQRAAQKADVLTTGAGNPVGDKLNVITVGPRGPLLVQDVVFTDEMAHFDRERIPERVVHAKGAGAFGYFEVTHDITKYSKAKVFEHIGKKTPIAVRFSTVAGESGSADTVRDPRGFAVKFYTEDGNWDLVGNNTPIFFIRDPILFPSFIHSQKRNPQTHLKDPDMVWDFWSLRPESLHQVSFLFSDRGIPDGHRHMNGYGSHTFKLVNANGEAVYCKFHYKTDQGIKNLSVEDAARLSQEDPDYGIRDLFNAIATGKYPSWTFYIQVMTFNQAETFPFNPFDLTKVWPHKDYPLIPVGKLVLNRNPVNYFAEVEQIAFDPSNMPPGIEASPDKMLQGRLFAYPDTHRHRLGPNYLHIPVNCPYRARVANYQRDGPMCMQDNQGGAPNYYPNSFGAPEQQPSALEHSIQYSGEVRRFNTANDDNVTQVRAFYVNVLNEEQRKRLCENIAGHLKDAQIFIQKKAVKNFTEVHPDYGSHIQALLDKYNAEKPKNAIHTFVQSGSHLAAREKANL

[2] = target: T2, membranous SOD of human tumor cells (MKN-45 gastric carcinoma, SHEP neuroblastoma) (human, UniProt P00441 2-154); experiment: cell-based or functional assay
T2 sequence (P00441 2-154): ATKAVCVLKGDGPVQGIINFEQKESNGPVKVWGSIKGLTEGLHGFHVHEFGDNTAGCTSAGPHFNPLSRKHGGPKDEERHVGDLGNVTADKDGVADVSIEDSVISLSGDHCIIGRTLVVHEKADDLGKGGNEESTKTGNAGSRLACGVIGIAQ

human SOD1 = target: T3, human SOD1 (human, UniProt P00441 2-154); experiment: heading of the sequence table; ELISA selection
T3 construct: Target of the ELISA by which the clones were selected; also called Cu/ZnSOD; superoxide dismutase
T3 sequence (P00441 2-154 limits assumed): as the sequence (P00441 2-154) above

[3] = target: T2, membranous SOD of human tumor cells …; experiment: cell-based or functional assay; remark: listed apart in the source
human catalase = target: T4, human catalase (human, UniProt P04040 2-527); experiment: heading of the sequence table; ELISA selection
T4 construct: Target of the ELISA by which the clones were selected
T4 sequence (looked up): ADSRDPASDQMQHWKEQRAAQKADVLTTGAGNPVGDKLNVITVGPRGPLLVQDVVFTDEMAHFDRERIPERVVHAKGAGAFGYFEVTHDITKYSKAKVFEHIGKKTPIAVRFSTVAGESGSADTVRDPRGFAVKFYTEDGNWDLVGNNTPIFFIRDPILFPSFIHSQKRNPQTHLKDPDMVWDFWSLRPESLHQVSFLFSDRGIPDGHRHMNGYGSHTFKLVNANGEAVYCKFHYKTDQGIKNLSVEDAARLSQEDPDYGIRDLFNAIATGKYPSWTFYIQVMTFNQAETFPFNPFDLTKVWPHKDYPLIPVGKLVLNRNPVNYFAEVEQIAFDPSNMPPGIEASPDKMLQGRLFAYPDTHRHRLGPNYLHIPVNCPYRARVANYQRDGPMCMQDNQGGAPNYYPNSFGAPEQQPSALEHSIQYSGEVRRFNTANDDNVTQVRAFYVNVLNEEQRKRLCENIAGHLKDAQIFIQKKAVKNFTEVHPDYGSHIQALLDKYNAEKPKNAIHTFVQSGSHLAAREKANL

B1: aCATcb0972 (VHH)
VHH: QVQLVESGGGLVQAGGSLRLSCAASERTFNTYGMGWFRQAPGKEREFVATISWSGDSTYYADSVKGRFTISRDNAKNTMYLQMNSLKPEDTAVYYCNANSEYGDSYWGQGTQVTVSS
B1 was tested, and the “relation (molar basis) (against aCATaSOD)” value [1] was 1420 fold and the “relation to opt. conc. hybrid Fab (against aCATaSOD)” value [1] was 708 fold.

B2: aSODcb0989 (VHH)
VHH: QVQLVESGGGLVQSGGSLTLSCTASGFTISNYPMTWVRQAPGKGLEWVSRINSGGDRTLYADSVKGRFTVSRDNARNTMYLQMNNLKPEDTGLYFCADSGAGWRYWGQGTQVTVSS
For B2, the “relation (molar basis) (against aCATaSOD)” value [2] was 2920 fold and the “relation to opt. conc. hybrid Fab (against aCATaSOD)” value [2] was 1460 fold.

B3: aSODcb0987 (VHH)
VHH: QVQLVESGGGIVQPGGSLRLSCVASESISEIDAMYWHRQAPGKERELVAGITNDGTRYYADSVKGRFTISRDNAKSTLYLQMNSLKFEDTAMYYCAALPNPPPGYWGQGTQVTVSS
notes: Recombinant alpaca single domain VHH fragment against human SOD1
B3: binds (human SOD1).

B4: aSODcb0991 (VHH)
VHH: QVQLVESGGGIVQPGGSLRLSCVASESISDIDAMYWHRQAPGKRRELVAGITNDGTEYFADSVKGRFAISRDNTKSSLYLQMNSLKLEDTAMYYCATLPNPPPGYWGQGTQVTVSS
With B4 the “concentration required for apoptosis induction in SHEP cells, against the neutralizing single domain VHH fragment” value [3] was 1e+06 fold.

B5: aCATcb0973 (VHH)
VHH: EVQLVESGGGLVQPGGSLRLSCAVSGFIFNTYSMRWGRQAPGKGLEWVSSISTGGYSTYADSVKGRFTISRDNAKNLVYLQMNSLKPEDTAVYYCGWGAFVRGERPQGQGTQVTVSS
notes: Recombinant alpaca single domain VHH fragment against human catalase
B5: binds (human catalase).

B6: aCATcb0974 (VHH)
VHH: QVQLVESGGGLVQPGGSLRLSCAASGSIFSIASMGWYRQAPGKQRDLVATITSDGSTKYADSVKGRFTISRDNAKNTMYLQMNSVKPEDAAVYYCNADADDLEPGSYDYDYWGQGTQVTVSS
notes: Recombinant alpaca single domain VHH fragment against human catalase; also called aCATcb9074
B6: binds (human catalase).

B7: aCATcb0975 (VHH)
VHH: QVQLVESGGGLVQPGGSLRLSCAASASIFSIYVMAWYRQAPGKQRELVATVTSGGATNYANSVKGRFTISRDNAKNTMDLQMNSLKPEDTAVYYCNAEDYYDYGLSRSKIYWGQGTQVTVSS
notes: as for B5
B7: binds (human catalase).
